Results: paper PMC3960220, “1,2-β-Oligoglucan Phosphorylase from Listeria innocua” (PLoS ONE, 2014)

Tested on: O=P(O)(O)O[C@H]1O[C@H](CO)[C@@H](O)[C@H](O)[C@H]1O
Test: phosphate release, Lowry and Lopez molybdate method, A700
Format: biochemical, Listeria innocua
Settings: synthetic reaction (donor, up to 10 mM), co-substrate 10 mM Sop2, 100 mM MOPS-NaOH pH 7.5, 30°C
Excerpt: phosphate release, Lowry and Lopez molybdate method, A700 on Lin1839r (recombinant Lin1839 protein; 1,2-β-oligoglucan phosphorylase)

## Lin1839r (recombinant Lin1839 protein; 1,2-β-oligoglucan phosphorylase) (Listeria innocua Clip11262; T2A)
  Km: 1200 ± 200 µM
  kcat: 43 ± 2 s⁻¹
  kcat/Km: 34000 ± 4000 M⁻¹ s⁻¹
